# Reference: publication PMC9513230, “Inhibition of Plasmodium falciparum Hsp70-Hop partnership by 2-phenylthynesulfonamide” (Frontiers in Molecular Biosciences, 2022)
# Read-outs that look alike come from different tables or passages of the source.
# B1: Plasmodium falciparum Hsp90-Hsp70 organizing protein (natural protein, UniProt Q8ILC1 1-564, looked up)
# chain: MVNKEEAQRLKELGNKCFQEGKYEEAVKYFSDAITNDPLDHVLYSNLSGAFASLGRFYEALESANKCISIKKDWPKGYIRKGCAEHGLRQLSNAEKTYLEGLKIDPNNKSLQDALSKVRNENMLENAQLIAHLNNIIENDPQLKSYKEENSNYPHELLNTIKSINSNPMNIRIILSTCHPKISEGVEKFFGFKFTGEGNDAEERQRQQREEEERRKKKEEEERKKKEEEEMKKQNRTPEQIQGDEHKLKGNEFYKQKKFDEALKEYEEAIQINPNDIMYHYNKAAVHIEMKNYDKAVETCLYAIENRYNFKAEFIQVAKLYNRLAISYINMKKYDLAIEAYRKSLVEDNNRATRNALKELERRKEKEEKEAYIDPDKAEEHKNKGNEYFKNNDFPNAKKEYDEAIRRNPNDAKLYSNRAAALTKLIEYPSALEDVMKAIELDPTFVKAYSRKGNLHFFMKDYYKALQAYNKGLELDPNNKECLEGYQRCAFKIDEMSKSEKVDEEQFKKSMADPEIQQIISDPQFQIILQKLNENPNSISEYIKDPKIFNGLQKLIAAGILKVR
# notes: Plasmodium falciparum Hsp90-Hsp70 organizing protein, PfHop (PF3D7_1434300); also called PfHop; PF3D7_1434300
# Assays:
# [1] = target: PfHsp70-1-PfHop association (Plasmodium falciparum, UniProt Q8IB24+Q8ILC1); test: ELISA for the direct association of PfHsp70-1 and PfHop; type: biochemical; settings: for Effect on association of PfHsp70-1 and PfHop: 25 µM nucleotide or inhibitor
# Description: An enzyme-linked immunosorbent assay (ELISA) was used to validate the effect of PES on the direct association of PfHsp70-1 and PfHop following a previously described protocol ([Mabate et al., 2018]). Briefly, ligand (5 μg/ml of PfHsp70-1) suspended in 5 mM sodium bicarbonate (NaHCO3) at pH 9.5 was noncovalently immobilized onto a 96 well plate overnight at 4 C. BSA (5 μg/ml) was used as a ligand for the negative control. The wells were washed with 150 µl TBST which contains (Tris-buffered saline- Tween (TBST; 20 mM Tris HCl, pH 7.5, 500 mM NaCl supplemented with 0.1% Tween 20) prior to blocking with 5% fat-free milk in TBST and incubated at 25 C for 1 h. The wells were washed using TBST for a total of 10 min. Varying concentrations (0–1,000 nM) of analyte PfHop were added to the wells and incubated for 2 h at 25 °C. To remove the unbound analyte, the plate was washed with 150 µl TBST three times before the addition of rabbit-raised α-PfHop antibody (1: 4,000) followed by incubation at 25°C for 1 h. Subsequently, the wells were washed with 150 µl TBST three times before the addition of 100 µl secondary HRP conjugated goat-raised α-rabbit antibody (1: 4,000) and incubated for 45 min at 25 °C. The substrate, 3,3’5,5’ –tetramethylbenzidine (TMB) (Bio Scientific, United States) was added into the wells and incubated for 2 min at 25 C. Color development was monitored by recording absorbance readings at 370 nm at 5 min time intervals for 30 min using a SpectraMax M3 Microplate reader (Molecular Devices, United States). To determine the effect of the inhibitor, the assay was conducted in the presence of 25 µM) of PES. […] Furthermore, the assay was repeated interchanging the ligand and analyte to validate data reproducibility. The generated data were analyzed taking into account the background signal generated by BSA which served as the control protein. The absorbance values obtained at the highest concentration of each analyte were averaged to represent maximum (100%) binding. Titration curves were then generated using GraphPad Prism 9.3.1 (GraphPad Software, United States). The relative binding affinities of PES under each experimental setting were normalized relative to the affinity estimated for assay conducted in the absence of nucleotide at the highest concentration of PfHop. Statistical analysis was conducted to establish significant differences at p < 0.05 using a student t-test.
# [2] = test system: Asexual P. falciparum strain 3D7 parasites; test: Parasite growth inhibition assay (SYBR Gold); type: cell-based; settings: Plasmodium falciparum, 3D7, 96 h, read-out: IC50 parasite growth
# Description: Parasite growth without any drug present, which allowed the parasites to proliferate unrestricted, was used as negative drug control. SYBRTM Gold DNA stain (Invitrogen, ThermoFisher Scientific Inc., Germany) was used to measure the proliferation of the parasites compared to the controls as previously described ([[…] al., 2004]). Fluorescence was measured using a TECAN Spark® multimode microplate reader (Tecan Trading AG, Switzerland) and the data were analyzed using SigmaPlot, version 12 (Systat Software Inc., IL, United States).
# [3] = test system: Asexual P. falciparum strain 3D7 parasites; settings: read-out: IC50 published potency, ref Smilkstein et al., 2004; cited from earlier work
# PfHop = target: T1, PfHop (Plasmodium falciparum, UniProt Q8ILC1); test: SPR equilibrium binding to immobilized PfHop
# T1 construct: His; made in house; host or cells: E. coli XL1 Blue
# T1 sequence (Q8ILC1 1-564): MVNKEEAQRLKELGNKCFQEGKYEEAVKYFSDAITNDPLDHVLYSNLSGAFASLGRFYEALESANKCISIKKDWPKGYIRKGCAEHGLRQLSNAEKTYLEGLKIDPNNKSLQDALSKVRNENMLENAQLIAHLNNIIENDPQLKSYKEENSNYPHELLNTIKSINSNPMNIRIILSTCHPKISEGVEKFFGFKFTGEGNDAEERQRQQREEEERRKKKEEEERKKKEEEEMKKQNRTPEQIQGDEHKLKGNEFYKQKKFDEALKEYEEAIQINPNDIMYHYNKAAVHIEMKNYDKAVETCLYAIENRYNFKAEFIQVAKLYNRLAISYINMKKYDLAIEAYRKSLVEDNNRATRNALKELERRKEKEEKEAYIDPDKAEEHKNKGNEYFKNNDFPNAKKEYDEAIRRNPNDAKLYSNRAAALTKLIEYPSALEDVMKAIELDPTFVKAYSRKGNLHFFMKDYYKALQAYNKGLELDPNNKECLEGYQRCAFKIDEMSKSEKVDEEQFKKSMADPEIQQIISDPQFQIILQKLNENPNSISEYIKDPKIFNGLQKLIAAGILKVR
# Description: The steady-state equilibrium binding kinetics for the inhibitors on either PfHsp70-1 or PfHop were investigated using BioNavis Navi 420A ILVES multi-parametric surface plasmon resonance (MP-SPR) system (BioNavis, Finland) following a previously described method ([Lebepe et al., 2020]; [Chakafana et al., 2021]). Briefly, filter-sterilized de-gassed PBS (4.3 mM Na2HPO4, 1.4 mM KH2PO4, 137 mM NaCl, 3 mM KCl, 0.005% (v/v) Tween 20, and 20 mM EDTA; pH 7.4) was used as running buffer for the assay. The ligand (0.1 μg/ml of PfHsp70-1/PfHop) was immobilized onto a carboxymethyl dextran (CMD 3-D) gold sensor chip through amine coupling. PES was injected (flow rate of 50 μl/min) as analyte at varying final concentrations (0, 1.25, 2.5, 5, 10, 20 nM). […] Steady-state equilibrium was achieved after allowing the interaction to occur for 8 min at 25°C, followed by dissociation for 4 min at 25°C, respectively. The data generated were analyzed using Data Viewer (BioNavis, Finland) after subtraction of baseline (signals generated on the chip surface without protein immobilized and buffer without inhibitor). The resultant sensorgrams were analyzed to determine the equilibrium binding affinities using Trace Drawer software version 1.8 (Ridgeview Instruments; Sweden).
# [4] = target: T2, Plasmodium falciparum Hsp70-1 (Plasmodium falciparum, UniProt Q8IB24 1-677); test: SPR; ligand and analyte switched: PfHop immobilised, PfHsp70-1 analyte; no nucleotide or inhibitor (NN); bivalent fit model; settings: both partners purified
# T2 construct: Plasmodium falciparum Hsp70-1 (PF3D7_0818900), cytosolic Hsp70; also called PfHsp70-1; PF3D7_0818900
# [5] = target: T2, Plasmodium falciparum Hsp70-1; test: SPR; ligand and analyte switched: PfHop immobilised, PfHsp70-1 analyte; with ATP; bivalent fit model; settings: both partners purified
# [6] = target: T2, Plasmodium falciparum Hsp70-1; test: SPR; PfHsp70-1 immobilised as ligand; PfHop analyte 0-2000 nM, 20 ul/min, 25 C, PBS; no nucleotide or inhibitor (NN); bivalent fit model; settings: both partners purified
# [7] = target: T2, Plasmodium falciparum Hsp70-1; test: SPR; PfHsp70-1 immobilised as ligand; PfHop analyte 0-2000 nM, 25 C, PBS; with 25 uM ADP; bivalent fit model; settings: both partners purified
# [8] = target: T2, Plasmodium falciparum Hsp70-1; test: SPR; ligand and analyte switched: PfHop immobilised, PfHsp70-1 analyte; with ADP; bivalent fit model; settings: both partners purified
# [9] = target: T2, Plasmodium falciparum Hsp70-1; test: SPR; ligand and analyte switched: PfHop immobilised, PfHsp70-1 analyte; with EGCG; bivalent fit model; settings: both partners purified
# [10] = target: T2, Plasmodium falciparum Hsp70-1; test: SPR; PfHsp70-1 immobilised as ligand; PfHop analyte 0-2000 nM, 25 C, PBS; with 25 uM EGCG; bivalent fit model; settings: both partners purified
# [11] = target: T2, Plasmodium falciparum Hsp70-1; test: SPR; ligand and analyte switched: PfHop immobilised, PfHsp70-1 analyte; with PES; bivalent fit model; settings: both partners purified
# [12] = target: T2, Plasmodium falciparum Hsp70-1; test: SPR; PfHsp70-1 immobilised as ligand; PfHop analyte 0-2000 nM, 25 C, PBS; with 25 uM ATP; bivalent fit model; settings: both partners purified
# [13] = target: T2, Plasmodium falciparum Hsp70-1; test: SPR; PfHsp70-1 immobilised as ligand; PfHop analyte 0-2000 nM, 25 C, PBS; with 25 uM PES; bivalent fit model; settings: both partners purified
molecule,measurement,setting,value
"O=C(O[C@@H]1Cc2c(O)cc(O)cc2O[C@@H]1c1cc(O)c(O)c(O)c1)c1cc(O)c(O)c(O)c1 [EGCG, (−)-Epigallocatechin-3-gallate]",IC50,"[1]; ligand PfHop, analyte PfHsp70-1",14.6 ± 1.8 nM
same,IC50,"[1]; ligand PfHsp70-1, analyte PfHop",13.9 ± 1.2 nM
CCN(CC)CCCC(C)Nc1ccnc2cc(Cl)ccc12 (stereo not shown) [chloroquine],IC50,[2],29.1 ± 1.3 nM
same,IC50,[3],21 ± 1.7 nM
Nc1ncnc2c1ncn2[C@@H]1O[C@H](COP(=O)(O)OP(=O)(O)OP(=O)(O)O)[C@@H](O)[C@H]1O [ATP],Effect on association of PfHsp70-1 and PfHop,[1],abrogated the association
same,Kd,PfHop,861 ± 10 nM
Nc1ncnc2c1ncn2[C@@H]1O[C@H](COP(=O)(O)OP(=O)(O)O)[C@@H](O)[C@H]1O [ADP],Effect on association of PfHsp70-1 and PfHop,[1],promoted the association
B1,Kd,[4],4.49 nM
same,koff,[4],0.0341 s⁻¹
same,kon,[4],7.6e+06 M⁻¹ s⁻¹
same,Kd,[5],80.9 nM
same,koff,[5],0.0215 s⁻¹
same,kon,[5],266000 M⁻¹ s⁻¹
same,Kd,[6],4.24 nM
same,koff,[6],0.00325 s⁻¹
same,kon,[6],767000 M⁻¹ s⁻¹
same,Kd,[7],3.08 nM
same,koff,[7],0.00308 s⁻¹
same,kon,[7],781000 M⁻¹ s⁻¹
same,Kd,[8],3.1 nM
same,koff,[8],0.025 s⁻¹
same,kon,[8],8.07e+06 M⁻¹ s⁻¹
same,Kd,[9],1360 nM
same,koff,[9],0.00914 s⁻¹
same,kon,[9],6710 M⁻¹ s⁻¹
same,Kd,[10],20700 nM
same,koff,[10],0.13 s⁻¹
same,kon,[10],6310 M⁻¹ s⁻¹
same,Kd,[11],232 nM
same,koff,[11],0.00811 s⁻¹
same,kon,[11],35000 M⁻¹ s⁻¹
same,Kd,[12],79.8 nM
same,koff,[12],0.0207 s⁻¹
same,kon,[12],259000 M⁻¹ s⁻¹
same,Kd,[13],214 nM
same,koff,[13],0.0266 s⁻¹
same,kon,[13],125000 M⁻¹ s⁻¹
